Target: human NRP2 (v2, NM_003872.3), untagged, stably overexpressed on Expi293F cells (Expi293F-hNRP2) (human) (UniProt O60462)
Assay: flow cytometry on cells

Substance: human Sema3F (amino acids 19 to 779), N-terminal 6xHis-Myc tag, R583A R586A (from UniProt Q13275 19-779) (ligand)
- EC50: 5.7 nM
